Test results: US20170306346
Residue numbers refer to the chain shown, from its start. Names may count otherwise.

What was measured:
[1] = target: GST-MYC2-HA, Q39204
[2] = target: T1, His-AtUBC31
T1 sequence (Q9C8X7 1-154, looked up): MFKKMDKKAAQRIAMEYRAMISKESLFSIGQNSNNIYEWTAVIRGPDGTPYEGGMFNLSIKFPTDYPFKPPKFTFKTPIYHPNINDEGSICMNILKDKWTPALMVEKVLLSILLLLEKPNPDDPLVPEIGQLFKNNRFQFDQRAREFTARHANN

[3] = target: T2, His-AtUBC2, P42745
T2 chain: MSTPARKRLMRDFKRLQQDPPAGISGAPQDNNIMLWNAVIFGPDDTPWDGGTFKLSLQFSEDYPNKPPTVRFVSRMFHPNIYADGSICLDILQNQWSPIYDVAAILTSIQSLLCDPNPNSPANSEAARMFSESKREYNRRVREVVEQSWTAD

[4] = target: His-AtUBC8, P35131
His-AtUBC8, P35131, sequence (P35131 whole entry): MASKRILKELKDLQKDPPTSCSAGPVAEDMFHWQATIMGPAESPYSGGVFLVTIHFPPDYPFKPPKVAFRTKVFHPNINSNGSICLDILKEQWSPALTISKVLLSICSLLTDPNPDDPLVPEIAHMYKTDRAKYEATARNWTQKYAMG

[5] = target: T3, His-AtUBC36, Q9FZ48
T3 chain: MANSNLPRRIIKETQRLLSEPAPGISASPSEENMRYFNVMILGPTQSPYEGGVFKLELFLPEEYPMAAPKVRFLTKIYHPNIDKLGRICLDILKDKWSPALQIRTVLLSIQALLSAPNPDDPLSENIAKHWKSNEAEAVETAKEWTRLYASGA

[6] = target: myc-MYC2, Q39204
myc-MYC2, Q39204, sequence (Q39204 whole entry): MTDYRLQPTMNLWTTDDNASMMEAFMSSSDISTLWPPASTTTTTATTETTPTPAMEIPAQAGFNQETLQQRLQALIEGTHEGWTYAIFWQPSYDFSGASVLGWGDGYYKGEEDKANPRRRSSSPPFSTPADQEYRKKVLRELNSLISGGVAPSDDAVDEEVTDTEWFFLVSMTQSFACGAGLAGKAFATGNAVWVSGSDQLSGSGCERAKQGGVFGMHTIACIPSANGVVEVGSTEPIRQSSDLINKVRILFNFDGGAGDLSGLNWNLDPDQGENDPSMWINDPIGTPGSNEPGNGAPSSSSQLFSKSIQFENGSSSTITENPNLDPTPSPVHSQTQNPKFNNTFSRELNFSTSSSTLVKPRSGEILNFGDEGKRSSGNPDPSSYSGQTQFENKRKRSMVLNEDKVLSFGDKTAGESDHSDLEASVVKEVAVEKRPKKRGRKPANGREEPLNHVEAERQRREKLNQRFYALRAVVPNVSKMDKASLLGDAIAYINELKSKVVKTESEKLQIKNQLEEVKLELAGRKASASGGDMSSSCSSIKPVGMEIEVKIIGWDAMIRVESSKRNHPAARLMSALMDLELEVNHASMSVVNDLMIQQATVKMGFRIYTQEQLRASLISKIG

GST-MYC2-HA, Q39204, sequence (Q39204 whole entry): as above

B1: MBP-PUB11-myc (protein)
chain: MAGGIVSPASLLDLIADIVEIPLNTGMFKKDCADLTRRVCLLTHLLEEIRDSTPIDSAASSSSENDWWSDLVVGLQAAKRLLSTARFQARDSSDGAAKRISFQFQCVTWKLEKALSNLPYDLYDISDEVGEQVELARSQLRRAMQRYGSLNSNKFSSALSEPMERDGFSNVIKIKAEEKLESVSETLHFGEEEEKQSSPPLRRSSSISLAYYLSKDADTDRLDKMVNKNTDESKKSDKLTIPVDFLCPVSLELMKDPVIVATGQTYERAYIQRWIDCGNLTCPKTQQKLENFTLTPNYVLRSLISRWCAEHNIEQPAGYINGRTKNSGDMSVIRALVQRLSSRSTEDRRNAVSEIRSLSKRSTDNRILIAEAGAIPVLVNLLTSEDVATQENAITCVLNLSIYENNKELIMFAGAVTSIVQVLRAGTMEARENAAATLFSLSLADENKIIIGGSGAIPALVDLLENGTPRGKKDAATALFNLCIYHGNKGRAVRAGIVTALVKMLSDSTRHRMVDEALTILSVLANNQDAKSAIVKANTLPALIGILQTDQTRNRENAAAILLSLCKRDTEKLITIGRLGAVVPLMDLSKNGTERGKRKAISLLELLRKACQ
[1]
  in vitro ubiquitination of MYC2 (E1, E2, Ub; Western blot): MYC2 is a substrate of PUB11 E3 ligase
[2]
  in vitro auto-ubiquitination of PUB11 with the UBC as E2: Each of these 4 UBCs was capable of supporting auto-ubiquitination of PUB10 and PUB11 in vitro although with varying degrees of activity
[3]
  in vitro auto-ubiquitination of PUB11 with the UBC as E2: Each of these 4 UBCs was capable of supporting auto-ubiquitination of PUB10 and PUB11 in vitro although with varying degrees of activity
[4]
  in vitro auto-ubiquitination of PUB11 with the UBC as E2: Each of these 4 UBCs was capable of supporting auto-ubiquitination of PUB10 and PUB11 in vitro although with varying degrees of activity ... The highest activity was obtained when UBC8 served as the ubiquitin conjugating enzyme
[5]
  in vitro auto-ubiquitination of PUB11 with the UBC as E2: Each of these 4 UBCs was capable of supporting auto-ubiquitination of PUB10 and PUB11 in vitro although with varying degrees of activity

B2: HA-PUB10 (protein)
chain: MAGGAITPDSLIGLIAEINEIPGNFGLFKKDCSDLARRVGLLTHLIEEIRDSSPPSESDASSSLNSHECDWWSDLVVGLQAAKRLLSSATSFQARESSDGAAKRISFQFQCVTWKLEKALGDLTYDRYDISDEVREQVELARLQLRRAMQRYGSLNSKKFSSGLSEPMEKDASSNRKVIEKLESIPETVHSLSDEKKFESPPPWKSSSVSLAFFLSKDGDDERLEKAVTENSDDSQKSDNLTIPEDFLCPISLELMKDPAIVSTGQTYERSFIQRWIDCGNLSCPKTQQKLENFTLTPNYVLRSLISQWCTKHNIEQPGGYMNGRTKNSDGSFRDLSGDMSAIRALVCKLSSQSIEDRRTAVSEIRSLSKRSTDNRILIAEAGAIPVLVKLLTSDGDTETQENAVTCILNLSIYEHNKELIMLAGAVTSIVLVLRAGSMEARENAAATLFSLSLADENKIIIGASGAIMALVDLLQYGSVRGKKDAATALFNLCIYQGNKGRAVRAGIVKPLVKMLTDSSSERMADEALTILSVLASNQVAKTAILRANAIPPLIDCLQKDQPRNRENAAAILLCLCKRDTEKLISIGRLGAVVPLMELSRDGTERAKRKANSLLELLRKSSRKLGSL
[6]
  myc-MYC2 protein level in double transgenic Arabidopsis seedlings (Western blot): induced expression of HA-PUB10 clearly resulted in a decrease in myc-MYC2 level

B3: MBP-PUB10 (C249A)-6myc (protein)
chain: B2 chain with C249A
[1]
  in vitro ubiquitination of MYC2 (E1, AtUBC8 as E2, His-ubiquitin; Western blot): The ubiquitination activity was greatly reduced when cysteine 249 was mutated to alanine 249

B4: MBP-PUB10-6myc (protein)
chain: B2 chain
[1]
  in vitro ubiquitination of MYC2 (E1, AtUBC8 as E2, His-ubiquitin; Western blot): MYC2 was indeed poly-ubiquitinated by PUB10 in vitro
[2]
  in vitro auto-ubiquitination of PUB10 with the UBC as E2: Each of these 4 UBCs was capable of supporting auto-ubiquitination of PUB10 and PUB11 in vitro although with varying degrees of activity
[3]
  in vitro auto-ubiquitination of PUB10 with the UBC as E2: Each of these 4 UBCs was capable of supporting auto-ubiquitination of PUB10 and PUB11 in vitro although with varying degrees of activity
[4]
  in vitro auto-ubiquitination of PUB10 with the UBC as E2: Each of these 4 UBCs was capable of supporting auto-ubiquitination of PUB10 and PUB11 in vitro although with varying degrees of activity ... The highest activity was obtained when UBC8 served as the ubiquitin conjugating enzyme
[5]
  in vitro auto-ubiquitination of PUB10 with the UBC as E2: Each of these 4 UBCs was capable of supporting auto-ubiquitination of PUB10 and PUB11 in vitro although with varying degrees of activity

B5: HA-PUB10 (C249A) (protein)
chain: B2 chain with C249A
[6]
  myc-MYC2 protein level in double transgenic Arabidopsis seedlings (Western blot): induced expression of PUB10 (C249A) mutant protein resulted in an increase of MYC2 level
